Test results published in patent US20050176083A1.

What was measured:
[1] = target: APC mutant QGNSEDY (ALL) (human) (UniProt P04070); assay: cell-based or functional assay
[2] = target: wild-type human activated protein C (recombinant, thrombin-activated) (human) (UniProt P04070); assay: cell-based or functional assay

APTT clotting time in protein S deficient human plasma with APC, in absence of protein S [1]: 160 s
APTT clotting time in protein S deficient human plasma with APC, protein S added [1]: 350 s
APTT clotting time in protein S deficient human plasma with APC, highest protein S concentration [2]: 150 s
APTT clotting time in protein S deficient human plasma with APC, in absence of protein S [2]: 100 s
Substance: human protein S (from UniProt P07225 42-676)
